The values below come from paper PMC6712498.

Usually stoichiometry N stands for the number of molecules, sites or subunits per partner or assembly.

For this assay, the target named is Gaussia princeps luciferase (Gluc)-LiDps fusion protein (Gaussia princeps | Listeria innocua). Nature of the assay: native gel or EMSA + other: TEM; purified refolded Gluc-LiDps; native gel with HuAFn and LiDps as molecular weight markers, and morphological characterization by TEM. For orientation: In EMSA bound probe runs differently from free probe, usually more slowly.

With “Gaussia princeps luciferase (Gluc)-LiDps fusion protein”, the stoichiometry N worked out at 12 subunits.
